Measurements published in the supplement of paper PMC10567573.

B1: INTS3 (parent)
chain: YPPLEGHVRQGVFSSLNHIVEKRV
B2: TMEM106C (parent)
chain: FTGRDSITCLTCQGTGYIPTEQVN

Variants of: B1
Test: protein stability index of a GFP-peptide fusion (GPS, HEK-293T) (PSI 1-6); higher = more stable
Conditions: c terminus: a fixed tail appended
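Also: lentivirally expressed fusions sorted by FACS into six bins by GFP to DsRed ratio, PSI derived from sequencing read proportions per bin multiplied by bin number.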

| Variant | protein stability index |
| --- | --- |
| YPVLEGHVRQGVFSSLNHIVEKRV [P3V] | 2.65 |
| YPNLEGHVRQGVFSSLNHIVEKRV [P3N] | 2.04 |
| YPFLEGHVRQGVFSSLNHIVEKRV [P3F] | 2.29 |
| YPHLEGHVRQGVFSSLNHIVEKRV [P3H] | 2.9 |
| YPALEGHVRQGVFSSLNHIVEKRV [P3A] | 2.43 |
| YPDLEGHVRQGVFSSLNHIVEKRV [P3D] | 3.11 |
| YPMLEGHVRQGVFSSLNHIVEKRV [P3M] | 2.67 |
| YPILEGHVRQGVFSSLNHIVEKRV [P3I] | 3.38 |
| YPLLEGHVRQGVFSSLNHIVEKRV [P3L] | 2.98 |
| YPYLEGHVRQGVFSSLNHIVEKRV [P3Y] | 2.08 |
| YPCLEGHVRQGVFSSLNHIVEKRV [P3C] | 2.78 |
| YPWLEGHVRQGVFSSLNHIVEKRV [P3W] | 1.49 |
| YPRLEGHVRQGVFSSLNHIVEKRV [P3R] | 2.63 |
| YPSLEGHVRQGVFSSLNHIVEKRV [P3S] | 3.19 |
| YPKLEGHVRQGVFSSLNHIVEKRV [P3K] | 3.04 |
| YPGLEGHVRQGVFSSLNHIVEKRV [P3G] | 2.9 |
| YPELEGHVRQGVFSSLNHIVEKRV [P3E] | 2.86 |
| YPTLEGHVRQGVFSSLNHIVEKRV [P3T] | 2.4 |

Variants of: B2
Test: as above
Conditions: c terminus: a fixed tail appended

| Variant | protein stability index |
| --- | --- |
| FTGRDSITCLTCQGTGYIPTEQEN [V23E] | 1.79 |
| FTGRDSITCLTCQGTGYIPTEQPN [V23P] | 1.89 |
| FTGRDSITCLTCQGTGYIPTEQMN [V23M] | 1.88 |
| FTGRDSITCLTCQGTGYIPTEQIN [V23I] | 1.47 |
| FTGRDSITCLTCQGTGYIPTEQNN [V23N] | 2.12 |
| FTGRDSITCLTCQGTGYIPTEQFN [V23F] | 1.73 |
| FTGRDSITCLTCQGTGYIPTEQDN [V23D] | 1.54 |
| FTGRDSITCLTCQGTGYIPTEQYN [V23Y] | 1.79 |
| FTGRDSITCLTCQGTGYIPTEQHN [V23H] | 2.11 |
| FTGRDSITCLTCQGTGYIPTEQGN [V23G] | 1.75 |
| FTGRDSITCLTCQGTGYIPTEQSN [V23S] | 1.51 |
| FTGRDSITCLTCQGTGYIPTEQLN [V23L] | 1.7 |
| FTGRDSITCLTCQGTGYIPTEQKN [V23K] | 2.3 |
| FTGRDSITCLTCQGTGYIPTEQWN [V23W] | 1.87 |
| FTGRDSITCLTCQGTGYIPTEQTN [V23T] | 2.09 |
| FTGRDSITCLTCQGTGYIPTEQAN [V23A] | 2.21 |
| FTGRDSITCLTCQGTGYIPTEQCN [V23C] | 2.25 |
| FTGRDSITCLTCQGTGYIPTEQRN [V23R] | 2.13 |
| FTGRDSITCLTCQGTGYIPTEQQN [V23Q] | 1.72 |
| FTGRDSITCLTCQGTGYIPTEMVN [Q22M] | 2.42 |
| FTGRDSITCLTCQGTGYIPTEDVN [Q22D] | 1.86 |
| FTGRDSITCLTCQGTGYIPTEGVN [Q22G] | 2.84 |
| FTGRDSITCLTCQGTGYIPTEVVN [Q22V] | 2.16 |
| FTGRDSITCLTCQGTGYIPTEIVN [Q22I] | 1.95 |
| FTGRDSITCLTCQGTGYIPTEFVN [Q22F] | 1.85 |
| FTGRDSITCLTCQGTGYIPTERVN [Q22R] | 2.13 |

| Variant | protein stability index |
| --- | --- |
| FTGRDSITCLTCQGTGYIPTEYVN [Q22Y] | 1.9 |
| FTGRDSITCLTCQGTGYIPTEHVN [Q22H] | 1.47 |
| FTGRDSITCLTCQGTGYIPTETVN [Q22T] | 2.2 |
| FTGRDSITCLTCQGTGYIPTEAVN [Q22A] | 2.07 |
| FTGRDSITCLTCQGTGYIPTEEVN [Q22E] | 1.73 |
| FTGRDSITCLTCQGTGYIPTEPVN [Q22P] | 1.73 |
| FTGRDSITCLTCQGTGYIPTEKVN [Q22K] | 1.85 |
| FTGRDSITCLTCQGTGYIPTEWVN [Q22W] | 1.88 |
| FTGRDSITCLTCQGTGYIPTENVN [Q22N] | 2.26 |
| FTGRDSITCLTCQGTGYIPTELVN [Q22L] | 2.52 |
| FTGRDSITCLTCQGTGYIPTECVN [Q22C] | 2 |
| FTGRDSITCLTCQGTGYIPTESVN [Q22S] | 1.79 |
| FTGRDSITCLTCQGTGYIPTSQVN [E21S] | 1.94 |
| FTGRDSITCLTCQGTGYIPTLQVN [E21L] | 2.03 |
| FTGRDSITCLTCQGTGYIPTKQVN [E21K] | 1.65 |
| FTGRDSITCLTCQGTGYIPTWQVN [E21W] | 1.84 |
| FTGRDSITCLTCQGTGYIPTHQVN [E21H] | 1.79 |
| FTGRDSITCLTCQGTGYIPTMQVN [E21M] | 1.75 |
| FTGRDSITCLTCQGTGYIPTIQVN [E21I] | 2.16 |
| FTGRDSITCLTCQGTGYIPTCQVN [E21C] | 3.11 |
| FTGRDSITCLTCQGTGYIPTNQVN [E21N] | 2.39 |
| FTGRDSITCLTCQGTGYIPTYQVN [E21Y] | 2.67 |
| FTGRDSITCLTCQGTGYIPTQQVN [E21Q] | 1.94 |
| FTGRDSITCLTCQGTGYIPTTQVN [E21T] | 2.08 |
| FTGRDSITCLTCQGTGYIPTPQVN [E21P] | 2.2 |
| FTGRDSITCLTCQGTGYIPTVQVN [E21V] | 2.59 |

| Variant | protein stability index |
| --- | --- |
| FTGRDSITCLTCQGTGYIPTFQVN [E21F] | 1.22 |
| FTGRDSITCLTCQGTGYIPTAQVN [E21A] | 1.79 |
| FTGRDSITCLTCQGTGYIPTRQVN [E21R] | 2.03 |
| FTGRDSITCLTCQGTGYIPTDQVN [E21D] | 1.82 |
| FTGRDSITCLTCQGTGYIPTGQVN [E21G] | 1.76 |
| FTGRDSITCLTCQGTGYIPTEQVW [N24W] | 3.36 |
| FTGRDSITCLTCQGTGYIPTEQVR [N24R] | 2.37 |
| FTGRDSITCLTCQGTGYIPTEQVT [N24T] | 2 |
| FTGRDSITCLTCQGTGYIPTEQVQ [N24Q] | 1.96 |
| FTGRDSITCLTCQGTGYIPTEQVV [N24V] | 2.24 |
| FTGRDSITCLTCQGTGYIPTEQVG [N24G] | 2.29 |
| FTGRDSITCLTCQGTGYIPTEQVA [N24A] | 1.89 |
| FTGRDSITCLTCQGTGYIPTEQVE [N24E] | 2.47 |
| FTGRDSITCLTCQGTGYIPTEQVD [N24D] | 2.21 |
| FTGRDSITCLTCQGTGYIPTEQVK [N24K] | 2.33 |
| FTGRDSITCLTCQGTGYIPTEQVP [N24P] | 1.76 |
| FTGRDSITCLTCQGTGYIPTEQVC [N24C] | 2.25 |
| FTGRDSITCLTCQGTGYIPTEQVF [N24F] | 1.92 |
| FTGRDSITCLTCQGTGYIPTEQVI [N24I] | 1.44 |
| FTGRDSITCLTCQGTGYIPTEQVH [N24H] | 2.07 |
| FTGRDSITCLTCQGTGYIPTEQVY [N24Y] | 2.11 |
| FTGRDSITCLTCQGTGYIPTEQVS [N24S] | 2.27 |
| FTGRDSITCLTCQGTGYIPTEQVL [N24L] | 1.91 |
| FTGRDSITCLTCQGTGYIPTEQVM [N24M] | 1.84 |
